Assays:
[1] = test system: ZAP, zeta activating peptide, the PKCzeta uORF-encoded peptide
[2] = test system: T1, ZIP, zeta inhibitory peptide, the pseudo-substrate peptide of the PKCzeta regulatory domain
T1 sequence: SIYRRGARRWRKL

## PKMzeta, truncated version of PKCzeta containing only the kinase domain
[1]
  kinase activity (phosphorylation of MBP, 32P-γ-ATP in vitro kinase assay, dose series of peptide): the ZAP peptide activates the kinase activity of both PKCzeta and PKMzeta
[2]
  kinase activity (phosphorylation of MBP, 32P-γ-ATP in vitro kinase assay, dose series of peptide): the known PS ZIP peptide inhibits their activity

## PKCgamma, HA-tagged, immunoprecipitated from HEK293T lysate
[1]
  phosphorylation of MBP by PKC isoforms (32P-γATP in vitro kinase assay): the peptide had no effect on the phosphorylation of MBP by the PKC isoforms PKCeta (PKCη), PKCtheta (PKCθ), PKCgamma (PKCγ), and PKCalpha (PKCα)

## PKCdelta, HA-tagged, immunoprecipitated from HEK293T lysate
[1]
  phosphorylation of MBP by PKC isoforms (32P-γATP in vitro kinase assay): enhanced the phosphorylation of PKC isoforms of the novel PKC sub-family of PKCzeta, PKCdelta and PKCepsilon
